Data from PMC11267260, “Atom‐Modified gDNA Enhances Cleavage Activity of TtAgo Enabling Ultra‐Sensitive Nucleic Acid Testing”.

Molecular target: T1, TtAgo (Thermus thermophilus Argonaute) (Thermus thermophilus, UniProt Q746M7 1-685)
T1 sequence: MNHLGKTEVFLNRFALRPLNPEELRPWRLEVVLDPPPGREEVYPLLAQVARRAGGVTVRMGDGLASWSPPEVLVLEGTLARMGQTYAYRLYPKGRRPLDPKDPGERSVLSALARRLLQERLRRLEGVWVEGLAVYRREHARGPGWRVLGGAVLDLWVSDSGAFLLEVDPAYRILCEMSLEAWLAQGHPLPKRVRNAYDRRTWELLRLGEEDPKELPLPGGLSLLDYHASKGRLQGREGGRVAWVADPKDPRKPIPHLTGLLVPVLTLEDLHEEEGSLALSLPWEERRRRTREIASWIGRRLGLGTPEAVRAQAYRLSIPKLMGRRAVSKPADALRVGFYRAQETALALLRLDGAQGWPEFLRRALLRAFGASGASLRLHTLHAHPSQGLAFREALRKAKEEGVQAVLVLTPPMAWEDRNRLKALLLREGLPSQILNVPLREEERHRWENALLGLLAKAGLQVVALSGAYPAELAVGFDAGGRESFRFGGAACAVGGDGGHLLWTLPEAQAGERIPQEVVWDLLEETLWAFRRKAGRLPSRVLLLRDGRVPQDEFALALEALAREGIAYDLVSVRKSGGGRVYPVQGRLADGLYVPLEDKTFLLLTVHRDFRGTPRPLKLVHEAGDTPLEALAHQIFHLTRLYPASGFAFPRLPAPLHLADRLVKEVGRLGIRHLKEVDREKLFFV
Test: EMSA; ternary complex; higher than with C-gDNA; BLI in 1x reaction buffer (composition, pH and temperature not given in the material); EMSA conditions not given
Details: protein: recombinant; tags: Ni-column purified; dialyzed with TEV protease (tag not described); guide 1-18 pairs with target 12-29; target overhangs 11 nt 5', 1 nt 3'

B1: F1-gDNA + target (mixed)
DNA 1: CATGCATCGATCAGCTAC
DNA 2: CTGCAGTCGTCGTAGCTGATCGATGCATGC
modifications: 2'-F on C18 of guide
binding result: binds
